Measurements: patent US10619138B2, “Herbicide-resistant hydroxyphenylpyruvate dioxygenases” (BASF SE, priority 2013, dated 2020)

Substrate: O=C(O)C(=O)Cc1ccc(O)cc1
Assay: purified protein, by the assay type
Conditions: other: pH 7.0, apparent, substrate inhibition model, 20.0 °C

B1: Arabidopsis thaliana HPPD, wild type, SEQ ID NO: 42 (Arabidopsis thaliana) (protein)
chain: MGHQNAAVSENQNHDDGAASSPGFKLVGFSKFVRKNPKSDKFKVKRFHHIEFWCGDATNVARRFSWGLGMRFSAKSDLSTGNMVHASYLLTSGDLRFLFTAPYSPSLSAGEIKPTTTASIPSFDHGSCRSFFSSHGLGVRAVAIEVEDAESAFSISVANGAIPSSPPIVLNEAVTIAEVKLYGDVVLRYVSYKAEDTEKSEFLPGFERVEDASSFPLDYGIRRLDHAVGNVPELGPALTYVAGFTGFHQFAEFTADDVGTAESGLNSAVLASNDEMVLLPINEPVHGTKRKSQIQTYLEHNEGAGLQHLALMSEDIFRTLREMRKRSSIGGFDFMPSPPPTYYQNLKKRVGDVLSDDQIKECEELGILVDRDDQGTLLQIFTKPLGDRPTIFIEIIQRVGCMMKDEEGKAYQSGGCGGFGKGNFSELFKSIEEYEKTLEAKQLVG
How did the Km turn out when B1 was run?
Its Km is 13 µM.

And the kcat?
The kcat was 12.9 s⁻¹.

And the kcat/Km?
Its kcat/Km is 1e+06 M⁻¹ s⁻¹.
